Measured values published in IntAct's records for PubMed 25609649.

B1: F-box/WD repeat-containing protein 11 (Homo sapiens), Q9UKB1 (parent)
chain: MEPDSVIEDKTIELMCSVPRSLWLGCANLVESMCALSCLQSMPSVRCLQISNGTSSVIVSRKRPSEGNYQKEKDLCIKYFDQWSESDQVEFVEHLISRMCHYQHGHINSYLKPMLQRDFITALPEQGLDHIAENILSYLDARSLCAAELVCKEWQRVISEGMLWKKLIERMVRTDPLWKGLSERRGWDQYLFKNRPTDGPPNSFYRSLYPKIIQDIETIESNWRCGRHNLQRIQCRSENSKGVYCLQYDDEKIISGLRDNSIKIWDKTSLECLKVLTGHTGSVLCLQYDERVIVTGSSDSTVRVWDVNTGEVLNTLIHHNEAVLHLRFSNGLMVTCSKDRSIAVWDMASATDITLRRVLVGHRAAVNVVDFDDKYIVSASGDRTIKVWSTSTCEFVRTLNGHKRGIACLQYRDRLVVSGSSDNTIRLWDIECGACLRVLEGHEELVRCIRFDNKRIVSGAYDGKIKVWDLQAALDPRAPASTLCLRTLVEHSGRVFRLQFDEFQIISSSHDDTILIWDFLNVPPSAQNETRSPSRTYTYISR
partner: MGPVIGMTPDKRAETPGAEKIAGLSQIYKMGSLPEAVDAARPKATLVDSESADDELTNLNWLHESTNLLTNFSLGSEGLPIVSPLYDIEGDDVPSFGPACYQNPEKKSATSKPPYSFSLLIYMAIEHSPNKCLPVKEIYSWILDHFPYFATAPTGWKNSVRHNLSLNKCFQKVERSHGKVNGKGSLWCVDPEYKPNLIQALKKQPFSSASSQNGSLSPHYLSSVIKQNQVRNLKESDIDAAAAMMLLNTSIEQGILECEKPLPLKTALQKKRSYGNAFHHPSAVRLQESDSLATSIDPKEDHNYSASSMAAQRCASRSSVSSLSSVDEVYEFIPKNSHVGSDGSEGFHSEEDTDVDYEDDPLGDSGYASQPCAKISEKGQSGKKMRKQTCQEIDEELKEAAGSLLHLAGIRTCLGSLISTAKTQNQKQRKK

Variants of: B1
Settings: with foxn2_human FOXN2, P32314

Row | effect of a mutation on the interaction | Variant
1 | disrupting interaction | L474A
